IntAct's records for PubMed 14675752

B1: Clathrin interactor 1 (Homo sapiens), Q14677 (parent)
chain: MLNMWKVRELVDKATNVVMNYSEIESKVREATNDDPWGPSGQLMGEIAKATFMYEQFPELMNMLWSRMLKDNKKNWRRVYKSLLLLAYLIRNGSERVVTSAREHIYDLRSLENYHFVDEHGKDQGINIRQKVKELVEFAQDDDRLREERKKAKKNKDKYVGVSSDSVGGFRYSERYDPEPKSKWDEEWDKNKSAFPFSDKLGELSDKIGSTIDDTISKFRRKDREDSPERCSDSDEEKKARRGRSPKGEFKDEEETVTTKHIHITQATETTTTRHKRTANPSKTIDLGAAAHYTGDKASPDQNASTHTPQSSVKTSVPSSKSSGDLVDLFDGTSQSTGGSADLFGGFADFGSAAASGSFPSQVTATSGNGDFGDWSAFNQAPSGPVASSGEFFGSASQPAVELVSGSQSALGPPPAASNSSDLFDLMGSSQATMTSSQSMNFSMMSTNTVGLGLPMSRSQNTDMVQKSVSKTLPSTWSDPSVNISLDNLLPGMQPSKPQQPSLNTMIQQQNMQQPMNVMTQSFGAVNLSSPSNMLPVRPQTNALIGGPMPMSMPNVMTGTMGMAPLGNTPMMNQSMMGMNMNIGMSAAGMGLTGTMGMGMPNIAMTSGTVQPKQDAFANFANFSK

Variants of: B1
Details: with ap1g1_mouse Ap1g1, P22892
Sequence of ap1g1_mouse Ap1g1, P22892 (P22892 whole entry): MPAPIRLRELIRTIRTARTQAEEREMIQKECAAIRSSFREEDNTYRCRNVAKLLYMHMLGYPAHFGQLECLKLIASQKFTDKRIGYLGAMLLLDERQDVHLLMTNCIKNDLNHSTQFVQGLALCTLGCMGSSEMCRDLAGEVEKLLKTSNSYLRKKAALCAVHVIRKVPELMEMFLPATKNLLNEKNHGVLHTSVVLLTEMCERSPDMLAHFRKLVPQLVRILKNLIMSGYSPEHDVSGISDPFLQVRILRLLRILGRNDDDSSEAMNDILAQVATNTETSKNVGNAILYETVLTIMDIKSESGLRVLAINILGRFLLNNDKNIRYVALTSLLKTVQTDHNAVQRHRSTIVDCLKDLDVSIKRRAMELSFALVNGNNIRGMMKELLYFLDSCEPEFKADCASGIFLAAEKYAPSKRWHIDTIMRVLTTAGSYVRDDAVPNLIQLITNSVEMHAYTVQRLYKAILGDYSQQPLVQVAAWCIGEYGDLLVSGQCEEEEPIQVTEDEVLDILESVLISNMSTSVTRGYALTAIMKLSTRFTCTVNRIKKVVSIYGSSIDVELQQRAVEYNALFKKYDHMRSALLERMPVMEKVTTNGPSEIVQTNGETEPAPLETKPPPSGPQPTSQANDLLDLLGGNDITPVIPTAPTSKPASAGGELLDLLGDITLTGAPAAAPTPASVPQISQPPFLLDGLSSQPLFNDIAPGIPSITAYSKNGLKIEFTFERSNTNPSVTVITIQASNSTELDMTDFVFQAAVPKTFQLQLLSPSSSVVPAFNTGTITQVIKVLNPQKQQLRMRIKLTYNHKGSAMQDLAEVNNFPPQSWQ

effect of a mutation on the interaction	Variant
decreasing interaction	F372A

Variants of: B1
Details: with ap1g1_mouse Ap1g1, P22892
Remark: another data set of the same source

effect of a mutation on the interaction	Variant
decreasing interaction	F378A

Variants of: B1
Details: with ap1g1_mouse Ap1g1, P22892
Remark: another data set of the same source

effect of a mutation on the interaction	Variant
decreasing interaction	D371A

Variants of: B1
Details: with ap1g1_mouse Ap1g1, P22892
Remark: another data set of the same source

effect of a mutation on the interaction	Variant
decreasing interaction	G373R

Variants of: B1
Details: with ap1g1_mouse Ap1g1, P22892
Remark: another data set of the same source

effect of a mutation on the interaction	Variant
decreasing interaction	D374A

Variants of: B1
Details: with ap1g1_mouse Ap1g1, P22892
Remark: another data set of the same source

effect of a mutation on the interaction	Variant
decreasing interaction	W375A
